Test results reported in doi:10.1101/2020.01.21.913814.

Molecular target: T1, His-tagged Arabidopsis thaliana full-length UVR8 (UV … LOCUS 8) (Arabidopsis thaliana), Q9FN03
T1 chain: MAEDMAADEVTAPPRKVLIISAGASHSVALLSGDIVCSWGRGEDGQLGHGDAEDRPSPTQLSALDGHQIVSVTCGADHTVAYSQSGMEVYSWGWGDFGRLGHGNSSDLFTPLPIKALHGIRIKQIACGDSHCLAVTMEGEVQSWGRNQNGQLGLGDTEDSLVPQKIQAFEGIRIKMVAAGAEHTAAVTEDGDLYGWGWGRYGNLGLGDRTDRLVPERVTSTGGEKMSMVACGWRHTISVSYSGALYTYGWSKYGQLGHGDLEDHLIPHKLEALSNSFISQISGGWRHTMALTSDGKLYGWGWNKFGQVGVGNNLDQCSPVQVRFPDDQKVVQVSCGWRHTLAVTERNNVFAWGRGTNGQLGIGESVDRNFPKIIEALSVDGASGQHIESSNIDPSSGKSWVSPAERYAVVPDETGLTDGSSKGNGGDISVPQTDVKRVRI
Experiment: SDS-PAGE without boiling
Conditions: remark: other sources report otherwise

stoichiometry N: 2
B1: His-tagged Arabidopsis thaliana full-length UVR8 (UV … LOCUS 8), Q9FN03 1-440 (natural protein)
chain: MAEDMAADEVTAPPRKVLIISAGASHSVALLSGDIVCSWGRGEDGQLGHGDAEDRPSPTQLSALDGHQIVSVTCGADHTVAYSQSGMEVYSWGWGDFGRLGHGNSSDLFTPLPIKALHGIRIKQIACGDSHCLAVTMEGEVQSWGRNQNGQLGLGDTEDSLVPQKIQAFEGIRIKMVAAGAEHTAAVTEDGDLYGWGWGRYGNLGLGDRTDRLVPERVTSTGGEKMSMVACGWRHTISVSYSGALYTYGWSKYGQLGHGDLEDHLIPHKLEALSNSFISQISGGWRHTMALTSDGKLYGWGWNKFGQVGVGNNLDQCSPVQVRFPDDQKVVQVSCGWRHTLAVTERNNVFAWGRGTNGQLGIGESVDRNFPKIIEALSVDGASGQHIESSNIDPSSGKSWVSPAERYAVVPDETGLTDGSSKGNGGDISVPQTDVKRVRI
